According to paper PMC4902170 (JCI insight, 2016):
Where two headings read alike, the source gives them in different places.

Tests used:
Assay in all cases: SPR
[1] = biological target: Human haptoglobin (from pooled human plasma, a mixture of 1-1, 2-1, and 2-2 phenotype) (human) (UniProt P00738)
[2] = biological target: T1, Recombinant human CD163 protein (human, UniProt Q86VB7-1 42-1050)
[3] = biological target: T1, Recombinant human CD163 protein; remark: listed apart in the source

T1 sequence (Q86VB7 42-1050): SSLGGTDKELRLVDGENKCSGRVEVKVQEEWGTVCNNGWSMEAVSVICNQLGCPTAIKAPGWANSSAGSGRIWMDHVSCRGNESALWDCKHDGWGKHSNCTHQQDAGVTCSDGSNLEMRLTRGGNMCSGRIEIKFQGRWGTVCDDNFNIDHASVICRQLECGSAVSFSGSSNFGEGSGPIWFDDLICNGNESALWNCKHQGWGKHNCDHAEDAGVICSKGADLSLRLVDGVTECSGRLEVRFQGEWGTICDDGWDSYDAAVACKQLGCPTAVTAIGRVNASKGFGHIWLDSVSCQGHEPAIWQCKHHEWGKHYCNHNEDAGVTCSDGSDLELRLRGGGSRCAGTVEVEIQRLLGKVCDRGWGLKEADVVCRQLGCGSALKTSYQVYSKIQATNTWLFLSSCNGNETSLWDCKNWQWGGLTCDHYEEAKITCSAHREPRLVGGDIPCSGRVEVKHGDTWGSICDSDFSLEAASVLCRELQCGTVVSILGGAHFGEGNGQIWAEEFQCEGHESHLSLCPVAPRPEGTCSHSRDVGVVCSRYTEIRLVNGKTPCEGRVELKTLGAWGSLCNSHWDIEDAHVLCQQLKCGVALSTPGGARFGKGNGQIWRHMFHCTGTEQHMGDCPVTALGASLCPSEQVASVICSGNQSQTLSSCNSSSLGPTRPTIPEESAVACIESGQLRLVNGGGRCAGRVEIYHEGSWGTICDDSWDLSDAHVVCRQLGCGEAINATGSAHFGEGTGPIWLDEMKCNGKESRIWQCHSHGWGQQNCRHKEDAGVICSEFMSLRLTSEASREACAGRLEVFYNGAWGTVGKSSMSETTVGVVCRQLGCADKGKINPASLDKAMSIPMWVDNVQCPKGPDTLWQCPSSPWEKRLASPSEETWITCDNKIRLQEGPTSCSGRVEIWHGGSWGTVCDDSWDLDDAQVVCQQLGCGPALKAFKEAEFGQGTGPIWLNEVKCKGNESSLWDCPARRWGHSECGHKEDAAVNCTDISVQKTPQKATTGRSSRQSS

Recombinant HMGB1 (redox form not stated for the experiment) (from UniProt P09429 1-215) (natural protein)
Kd [1]: 64 nM

B1: HMGB1 and haptoglobin complexes (1:1 molar ratio) (complex)
chain 1: GKGDPKKPRGKMSSYAFFVQTCREEHKKKHPDASVNFSEFSKKCSERWKTMSAKEKGKFEDMAKADKARYEREMKTYIPPKGETKKKFKDPNAPKRPPSAFFLFCSEYRPKIKGEHPGLSIGDVAKKLGEMWNNTAADDKQPYEKKAAKLKEKYEKDIAAYRAKGKPDAAKKGVVKAEKSKKKKEEEDDEEDEEDEEEEEEEEDEDEEEDDDDE
chain 2: VDSGNDVTDIADDGCPKPPEIAHGYVEHSVRYQCKNYYKLRTEGDGVYTLNDKKQWINKAVGDKLPECEADDGCPKPPEIAHGYVEHSVRYQCKNYYKLRTEGDGVYTLNNEKQWINKAVGDKLPECEAVCGKPKNPANPVQ
chain 3: ILGGHLDAKGSFPWQAKMVSHHNLTTGATLINEQWLLTTAKNLFLNHSENATAKDIAPTLTLYVGKKQLVEIEKVVLHPNYSQVDIGLIKLKQKVSVNERVMPICLPSKDYAEVGRVGYVSGWGRNANFKFTDHLKYVMLPVADQDQCIRHYEGSTVPEKKTPKSPVGVQPILNEHTFCAGMSKYQEDTCYGDAGSAFAVHDLEEDTWYATGILSFDKSCAVAEYGVYVKVTSIQDWVQKTIAEN
Kd [2]: 130 nM

B2: Recombinant HMGB1 (redox form not stated for the experiment) (natural protein, human, UniProt P09429 1-215, looked up)
chain: MGKGDPKKPRGKMSSYAFFVQTCREEHKKKHPDASVNFSEFSKKCSERWKTMSAKEKGKFEDMAKADKARYEREMKTYIPPKGETKKKFKDPNAPKRPPSAFFLFCSEYRPKIKGEHPGLSIGDVAKKLGEMWNNTAADDKQPYEKKAAKLKEKYEKDIAAYRAKGKPDAAKKGVVKAEKSKKKKEEEEDEEDEEDEEEEEDEEDEDEEEDDDDE
Kd [3]: > 1000 nM
